Experimental data from paper PMC2323369.

Legend:
Experiment in all cases: not stated; Table 1, GST-RBD, GDP-RhoA, GTP-Cdc42, GTP-Rac1; the caption names competition ELISA and SPR but not which gave these limits
[1] = biological target: GST-Cdc42 (UniProt P60953)
[2] = biological target: GST-Rac1 (UniProt P63000)
[3] = biological target: GST-RhoA (wild type) (UniProt P61586)

Measured: Kd

GST-Cdc42, sequence (P60953 whole entry): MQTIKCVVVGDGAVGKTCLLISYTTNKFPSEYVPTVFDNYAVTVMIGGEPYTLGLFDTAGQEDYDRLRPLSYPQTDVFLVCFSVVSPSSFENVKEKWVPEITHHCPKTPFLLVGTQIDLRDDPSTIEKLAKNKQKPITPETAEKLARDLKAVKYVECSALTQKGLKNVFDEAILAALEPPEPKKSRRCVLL
GST-RhoA (wild type), sequence (P61586 whole entry): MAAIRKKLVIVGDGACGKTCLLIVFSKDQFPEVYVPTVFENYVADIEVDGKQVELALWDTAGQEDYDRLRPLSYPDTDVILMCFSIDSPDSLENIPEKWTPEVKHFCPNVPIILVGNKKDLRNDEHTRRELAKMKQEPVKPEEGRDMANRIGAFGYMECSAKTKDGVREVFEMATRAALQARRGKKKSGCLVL

GST-RBD (Rho binding domain of Rhotekin fused to GST) (domain or fragment)
> 50 µM: all assays above
